Results reported in US20180155451A1 (published 2018).

T1: FcγRIIa R (human FcγRIIa, allotype R, Arg at position 131), extracellular domain with C-terminal His tag (human, UniProt P12318 34-217)
T1 construct: extracellular domain; expressed in FreeStyle293 cells; analyte in Biacore; also called 2aR; FcgRIIa R
T1 sequence (looked up): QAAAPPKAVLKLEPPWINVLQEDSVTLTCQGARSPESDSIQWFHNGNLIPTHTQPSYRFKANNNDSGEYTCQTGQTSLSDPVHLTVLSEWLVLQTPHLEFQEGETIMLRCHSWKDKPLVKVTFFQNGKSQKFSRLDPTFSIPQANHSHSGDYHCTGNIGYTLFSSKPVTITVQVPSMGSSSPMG

B1: GpH7-A5/GpH7-B3 variant P331_18N/GpL16-k0 (antibody, human IgG1, kappa)
heavy 1: not shown
heavy 2: not shown
light: DIVMTQSPLSLPVTPGEPASISCQASESLVHSNRNTYLHWYLQKPGQSPQLLIYKVSNRFSGVPDRFSGSGSGTDFTLKISRVEAEDVGVYYCSQNTHVPPTFGQGTKVEIERTVAAPSVFIFPPSDEQLKSGTASVVCLLNNFYPREAKVQWKVDNALQSGNSQESVTEQDSKDSTYSLSSTLTLSKADYEKHKVYACEVTHQGLSSPVTKSFNRGEC
notes: heterodimerized antibody, mutation in one H chain only; also called He Ab
B2: GpH7-A5/GpH7-B3 variant Q295_06M/GpL16-k0 (antibody, human IgG1, kappa)
heavy 1: not shown
heavy 2: not shown
light: DIVMTQSPLSLPVTPGEPASISCQASESLVHSNRNTYLHWYLQKPGQSPQLLIYKVSNRFSGVPDRFSGSGSGTDFTLKISRVEAEDVGVYYCSQNTHVPPTFGQGTKVEIERTVAAPSVFIFPPSDEQLKSGTASVVCLLNNFYPREAKVQWKVDNALQSGNSQESVTEQDSKDSTYSLSSTLTLSKADYEKHKVYACEVTHQGLSSPVTKSFNRGEC
notes: as for B1
B3: GpH7-A5/GpH7-B3 variant Q295_10E/GpL16-k0 (antibody, human IgG1, kappa)
heavy 1: not shown
heavy 2: not shown
light: DIVMTQSPLSLPVTPGEPASISCQASESLVHSNRNTYLHWYLQKPGQSPQLLIYKVSNRFSGVPDRFSGSGSGTDFTLKISRVEAEDVGVYYCSQNTHVPPTFGQGTKVEIERTVAAPSVFIFPPSDEQLKSGTASVVCLLNNFYPREAKVQWKVDNALQSGNSQESVTEQDSKDSTYSLSSTLTLSKADYEKHKVYACEVTHQGLSSPVTKSFNRGEC
notes: as for B1
B4: GpH7-A5/GpH7-B3 variant S239_05P/GpL16-k0 (antibody, human IgG1, kappa)
heavy 1: not shown
heavy 2: not shown
light: DIVMTQSPLSLPVTPGEPASISCQASESLVHSNRNTYLHWYLQKPGQSPQLLIYKVSNRFSGVPDRFSGSGSGTDFTLKISRVEAEDVGVYYCSQNTHVPPTFGQGTKVEIERTVAAPSVFIFPPSDEQLKSGTASVVCLLNNFYPREAKVQWKVDNALQSGNSQESVTEQDSKDSTYSLSSTLTLSKADYEKHKVYACEVTHQGLSSPVTKSFNRGEC
notes: as for B1
B5: GpH7-A5/GpH7-B3 variant S239_06M/GpL16-k0 (antibody, human IgG1, kappa)
heavy 1: not shown
heavy 2: not shown
light: DIVMTQSPLSLPVTPGEPASISCQASESLVHSNRNTYLHWYLQKPGQSPQLLIYKVSNRFSGVPDRFSGSGSGTDFTLKISRVEAEDVGVYYCSQNTHVPPTFGQGTKVEIERTVAAPSVFIFPPSDEQLKSGTASVVCLLNNFYPREAKVQWKVDNALQSGNSQESVTEQDSKDSTYSLSSTLTLSKADYEKHKVYACEVTHQGLSSPVTKSFNRGEC
notes: as for B1
B6: GpH7-A5/GpH7-B3 variant S239_07I/GpL16-k0 (antibody, human IgG1, kappa)
heavy 1: not shown
heavy 2: not shown
light: DIVMTQSPLSLPVTPGEPASISCQASESLVHSNRNTYLHWYLQKPGQSPQLLIYKVSNRFSGVPDRFSGSGSGTDFTLKISRVEAEDVGVYYCSQNTHVPPTFGQGTKVEIERTVAAPSVFIFPPSDEQLKSGTASVVCLLNNFYPREAKVQWKVDNALQSGNSQESVTEQDSKDSTYSLSSTLTLSKADYEKHKVYACEVTHQGLSSPVTKSFNRGEC
notes: as for B1
B7: GpH7-A5/GpH7-B3 variant S239_14T/GpL16-k0 (antibody, human IgG1, kappa)
heavy 1: not shown
heavy 2: not shown
light: DIVMTQSPLSLPVTPGEPASISCQASESLVHSNRNTYLHWYLQKPGQSPQLLIYKVSNRFSGVPDRFSGSGSGTDFTLKISRVEAEDVGVYYCSQNTHVPPTFGQGTKVEIERTVAAPSVFIFPPSDEQLKSGTASVVCLLNNFYPREAKVQWKVDNALQSGNSQESVTEQDSKDSTYSLSSTLTLSKADYEKHKVYACEVTHQGLSSPVTKSFNRGEC
notes: as for B1
B8: GpH7-A5/GpH7-B3 variant S337_03V/GpL16-k0 (antibody, human IgG1, kappa)
heavy 1: not shown
heavy 2: not shown
light: DIVMTQSPLSLPVTPGEPASISCQASESLVHSNRNTYLHWYLQKPGQSPQLLIYKVSNRFSGVPDRFSGSGSGTDFTLKISRVEAEDVGVYYCSQNTHVPPTFGQGTKVEIERTVAAPSVFIFPPSDEQLKSGTASVVCLLNNFYPREAKVQWKVDNALQSGNSQESVTEQDSKDSTYSLSSTLTLSKADYEKHKVYACEVTHQGLSSPVTKSFNRGEC
notes: as for B1

The binders below were run against T1, FcγRIIa R (human FcγRIIa, allotype R, …) (assay: SPR (Biacore), relative binding vs GpH7-A5/GpH7-B3/GpL16-k0).
Procedure: Analysis of interaction between objective antibody and the FcγR was carried out using Biacore T100 (GE Healthcare). HBS-EP+ (GE Healthcare) was used as the running buffer, and the measurement temperature was set to 25° C. Chips produced by immobilizing the antigen peptide by the amine coupling method to a Series S Sencor Chip CM5 (GE Healthcare), or alternatively, chips produced by allowing preliminarily biotinylated antigen peptides to interact with and immobilize onto a Series S Sensor Chip SA (certified) (GE Healthcare) were used. Antibodies of interest were captured onto an antigen peptide-immobilized chip, and allowed to interact to each FcγR diluted with running buffer. To regenerate and repeatedly use the chip, the antibodies captured on the chip were washed off by reacting 10 mM glycine-HCl, pH 1.5.
The FcγR-binding activity of each antibody was assessed primarily using as an indicator the FcγR-binding activity and dissociation constant for FcγR.
With B1 the He/Con_2aR was 105 relative, control = 100. In the case of B2, the He/Con_2aR is reported as 102 relative, control = 100. In the case of B3, the He/Con_2aR is reported as 102 relative, control = 100. In the case of B4, the He/Con_2aR is reported as 106 relative, control = 100. In the case of B5, the He/Con_2aR is reported as 101 relative, control = 100. In the case of B6, the He/Con_2aR is reported as 102 relative, control = 100. For B7, the He/Con_2aR was 103 relative, control = 100. With B8 the He/Con_2aR was 106 relative, control = 100.
